In article PMC11040377:

Target: Lag3 (lymphocyte-activation gene 3), on transfected SH-SY5Y cells (not stated (human or mouse cDNA cloned)) (UniProt Q61790)
Assay: cell surface binding assay (streptavidin-alkaline phosphatase staining); SH-SY5Y cells transfected with Lag3 or its deletion mutants; biotin-labelled ligand at different concentrations (monomer equivalent) in DMEM with 10% FBS, 2 h at RT; washed, fixed, bound biotin detected with streptavidin-AP and BCIP/NBT; intensity by ImageJ, KD by GraphPad Prism

Lag3 (lymphocyte-activation gene 3), on transfected SH-SY5Y cells (not stated (human or mouse cDNA cloned)), sequence (Q61790 24-521): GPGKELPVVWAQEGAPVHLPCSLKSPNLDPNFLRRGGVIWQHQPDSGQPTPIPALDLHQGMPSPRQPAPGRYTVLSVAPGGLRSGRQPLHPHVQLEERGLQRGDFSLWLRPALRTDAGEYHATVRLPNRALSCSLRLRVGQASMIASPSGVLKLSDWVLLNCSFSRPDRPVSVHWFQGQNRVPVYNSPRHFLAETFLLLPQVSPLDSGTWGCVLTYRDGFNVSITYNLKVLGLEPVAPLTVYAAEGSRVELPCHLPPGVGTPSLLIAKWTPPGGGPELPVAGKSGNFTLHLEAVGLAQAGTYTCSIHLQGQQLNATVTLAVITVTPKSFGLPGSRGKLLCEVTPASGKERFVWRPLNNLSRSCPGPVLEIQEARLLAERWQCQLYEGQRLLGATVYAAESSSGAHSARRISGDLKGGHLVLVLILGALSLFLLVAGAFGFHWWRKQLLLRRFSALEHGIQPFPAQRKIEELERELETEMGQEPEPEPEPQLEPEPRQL

Kd: 227 nM
Substance: Tau PFF derived from PSP (progressive supranuclear palsy) seeds
